# Assay results: article doi:10.1101/2024.01.31.578278
# B1: CytC aptamer (ssDNA)
# DNA: CCGTGTCTGGGGCCGACCGGCGCATTGGGTACGTTGTTGC
# modifications: 5' thiol C6 (ThioMC6-D, disulfide reduced); 3' amino modifier (AmMO)
# Biological target: cytochrome c (CytC), recombinant human (human, UniProt P99999 1-105)
# Assay: electrochemical aptasensor
# Chain of cytochrome c (CytC), recombinant human (P99999 whole entry): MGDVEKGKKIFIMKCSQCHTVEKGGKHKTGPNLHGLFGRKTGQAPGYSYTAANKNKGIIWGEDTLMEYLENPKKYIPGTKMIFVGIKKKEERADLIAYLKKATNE
binder,measurement,value
B1,Kd,6.19 ± 1.57 ng/mL
